# Data published in US20250026813A1.
# Target: SARS-CoV-2 spike trimer protein (wild type), in the envelope of lentiviral pseudovirus particles (SARS-CoV-2) (UniProt P0DTC2)
# Test: cell-based or functional assay
substance,measurement,value
4A8 (antibody),Fold change relative to SAD S35 antibody,5.44 fold
